Source: PMC3877047 (PLoS ONE, 2013)

T1: HMunc18c (His6-tagged full-length mouse Munc18c from a codon-optimised synthetic gene in pQE30) (mouse, UniProt Q60770 1-592)
T1 construct: Monomer by SEC-MALS; also called pQE30-His6-Munc18c; bacterially expressed Munc18c; source: E. coli BL21, co-expressed with GroEL/GroES, purified (IMAC PrepEase, SEC, MonoS IEC); not shown: His6, N-terminal, kept
T1 sequence (looked up): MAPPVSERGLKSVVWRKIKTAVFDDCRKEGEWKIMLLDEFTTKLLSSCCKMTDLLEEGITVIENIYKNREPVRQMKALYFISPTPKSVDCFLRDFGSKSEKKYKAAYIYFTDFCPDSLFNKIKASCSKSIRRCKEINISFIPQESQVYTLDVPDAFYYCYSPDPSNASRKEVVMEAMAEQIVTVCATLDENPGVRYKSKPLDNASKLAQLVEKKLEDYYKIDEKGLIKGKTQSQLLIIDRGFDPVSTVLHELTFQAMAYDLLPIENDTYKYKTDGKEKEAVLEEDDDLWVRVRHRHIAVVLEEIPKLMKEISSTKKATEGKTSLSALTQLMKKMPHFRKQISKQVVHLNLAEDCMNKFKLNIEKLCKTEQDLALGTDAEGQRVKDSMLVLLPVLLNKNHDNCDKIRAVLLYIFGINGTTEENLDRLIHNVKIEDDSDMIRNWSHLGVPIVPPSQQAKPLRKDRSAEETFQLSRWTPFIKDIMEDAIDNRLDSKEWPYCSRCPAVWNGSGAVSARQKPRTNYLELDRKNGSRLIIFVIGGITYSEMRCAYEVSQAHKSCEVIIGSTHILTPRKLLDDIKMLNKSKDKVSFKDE

B1: Munc18c (un-tagged) (natural protein, mouse, UniProt Q60770 1-592, looked up)
chain: T1 sequence (looked up)
notes: made from pQE30-HMunc18c by PCR that removes the His6 codons; A few vector-encoded residues may be left at the N-terminus (surmised); also called untagged Munc18c; un-tagged Munc18c
B2: Sx4(1-275)-His (C-terminally His6-tagged Syntaxin4 C141S, residues 1-275) (domain or fragment, UniProt P70452 1-275, looked up)
chain: MRDRTHELRQGDNISDDEDEVRVALVVHSGAARLGSPDDEFFQKVQTIRQTMAKLESKVRELEKQQVTILATPLPEESMKQGLQNLREEIKQLGREVRAQLKAIEPQKEEADENYNSVNTRMKKTQHGVLSQQFVELINKSNSMQSEYREKNVERIRRQLKITNAGMVSDEELEQMLDSGQSEVFVSNILKDTQVTRQALNEISARHSEIQQLERSIRELHEIFTFLATEVEMQGEMINRIEKNILSSADYVERGQEHVKIALENQKKARKKKVM
notes: source: also in lysate for the co-purification; not shown: His6, C-terminal, kept

Experiments:
[1] = molecular target: B2; experiment: pull-down + SEC; lysates of un-tagged Munc18c and Sx4(1-275)-His mixed 3:1 by volume, captured on TALON beads, eluted, Superdex 200 in 25 mM Tris-HCl pH 7.5, 300 mM NaCl, 10% glycerol; peak fractions on SDS-PAGE; conditions: partners not purified
[2] = molecular target: T1, HMunc18c (His6-tagged full-length mouse …); experiment: ITC; 298 K, iTC200; Sx4(1-275)-His 200-220 µM titrated into 20-30 µM HMunc18c in the cell; 25 mM HEPES pH 8, 200 mM NaCl, 10% glycerol, 2 mM β-ME; single site model; four replicates, mean ± SEM; conditions: both partners purified

| stoichiometry N [1] | Kd [2] [nM] | dH [2] [kcal/mol] | stoichiometry N [2] | Binder |
| --- | --- | --- | --- | --- |
| 1 | – | – | – | B1 |
| – | 104 | -11 | 0.97 | B2 |
